Holding throughout (assay type): binding
Assay [1] can be described thus: Fluorescence titration of Bbp muteins with digoxigenin. As to the method:
(§1) The ligand binding properties of muteins DigA, DigA16 and also of the recombinant bilin-binding protein (encoded by SEQ ID NO:16) were determined by means of the method of fluorescence titration. In this case, the decrease in intrinsic tyrosine and/or tryptophan fluorescence of the protein forming a complex with the ligand was measured. The measurements were carried out in a fluorimeter, type LS 50 B (Perkin Elmer) at an excitation wavelength of 295 nm (slit width 4 nm) and an emission wavelength of 345 nm (slit width 6 nm). The ligands used were digoxigenin (Fluka), digoxin (Fluka), digitoxigenin (Fluka), digitoxin (Fluka), testosterone (Sigma), ouabain (Fluka), and 4-aminofluorescein (Fluka).
(§2) The buffer system used was PBS with the addition of 1 mM EDTA. […] The concentration was determined by means of absorption at 280 nm using calculated extinction coefficients of 53580 M^−1 cm^−1 for DigA and DigA16 (Wisconsin Software Package, Genetics Computer Group). For Bbp, the calculated extinction coefficient of 54150 M^−1 cm^−1, corrected in the presence of guanidinium chloride according to Gill and von Hippel (Anal. Biochem. 182 (1989), 319–326) was used. […]
(§3) Here, F means the normalized fluorescence intensity and [L]t the total ligand concentration in the particular titration step. […]

A short description of assay [2]: Fluorescence titration of Bbp muteins with digoxin. The conditions noted are these: 1 μM mutein, PBS with 1 mM EDTA, 25° C., read-out: Kd, ligand digoxin. As to the method: as §1, §2, §3
The nature of assay [3]: Fluorescence titration of Bbp muteins with digitoxigenin. As to the method: as §1, §2, §3
A short description of assay [4]: Fluorescence titration of Bbp muteins with digitoxin. The conditions noted are these: 1 μM mutein, PBS with 1 mM EDTA, 25° C., read-out: Kd, ligand digitoxin. As to the method: as §1, §2, §3
Assay [5] is described as follows: Fluorescence titration of Bbp muteins with ouabain. As to the method:
as §1, §2, §3

Assay [6] is described as follows: Fluorescence titration of Bbp muteins with testosterone. The conditions noted are these: 1 μM mutein, PBS with 1 mM EDTA, 25° C., read-out: Kd, ligand testosterone. As to the method:
as §1, §2, §3

Assay [7] can be described thus: Fluorescence titration of Bbp muteins with 4-aminofluorescein. The conditions noted are these: 1 μM mutein, PBS with 1 mM EDTA, 25° C., read-out: Kd, ligand 4-aminofluroescein. As to the method:
as §1, §2, §3

Assay [8] in a line: Sandwich ELISA detecting digoxigenin groups with DigA16-alkaline phosphatase fusion proteins. The settings on record: p-nitrophenyl phosphate hydrolysis, 405 nm, FIG. 3. From the text: Here, the digoxigenin groups were coupled on the one hand to bovine serum albumin (BSA, squares) or, on the other hand, to chicken egg albumin (ovalbumin, triangles) The control data shown are those obtained when using underivatized bovine serum albumin and the fusion protein encoded by pBBP27 (open circles). The enzymatic activity corresponding to the particular bound fusion protein was monitored spectrophotometrically at 405 nm on the basis of p-nitrophenyl phosphate hydrolysis. Curve fitting was carried out by non-linear regression with the aid of the Kaleidagraph computer program (Abelbeck Software) by means of the equation [P·L]=[L]t[P]t/(Kd+[P]t)
Here, [P]t corresponds to the total fusion protein concentration used in the particular microtiter plate well. [P·L] is determined on the basis of the enzymatic activity of alkaline phosphatase. […]
For detecting digoxigenin groups in a sandwich ELISA, the wells in in each case two rows of a microtiter plate (ELISA strips, 2×8 well with high binding capacity, F-type, Greiner) were filled in each case with 100 μl of a 100 μg/ml solution of the BSA-digoxigenin conjugate or the ovalbumin-digoxigenin conjugate in PBS and incubated at RT overnight. […] The fusion proteins bound to the digoxigenin groups were finally detected by means of alkaline phosphatase-catalyzed hydrolysis of p-nitrophenyl phosphate. […]
(In general: ELISA stands for enzyme-linked immunosorbent assay.)

B1: DigA16: affinity-improved mutein of the bilin-binding protein derived from DigA, encoded by SEQ ID NO:15 (polypeptide SEQ ID NO: 23) (protein)
chain: DVYHDGACPEVKPVDNFDWSQYHGKWWQVAAYPDHITKYGKCGWAEYTPEGKSVKVSRYSVIHGKEYFSEGTAYPVGDSKIGKIYHSYTIGGVTQEGVFNVLSTDNKNYIIGYFCSYDEDKKGHMDLVWVLSRSMVLTGEAKTAVENYLIGSPVVDSQKLVYSDFSEAACKVNN
With B1, the Kd in assay [1] (fluorescence titration, 1 μM mutein, PBS with 1 mM EDTA, 25° C., read-out: Kd, ligand digoxigenin) was 30.2 ± 3.6 nM; in assay [2] it was 31.1 ± 3.2 nM; in assay [3] (1 μM mutein, PBS with 1 mM EDTA, 25° C., read-out: Kd, ligand digitoxigenin), 2.8 ± 2.7 nM; in assay [4], 2.7 ± 2 nM; in assay [5] (1 μM mutein, PBS with 1 mM EDTA, 25° C., read-out: Kd, ligand ouabain), greater than 10000 nM; in assay [6], greater than 10000 nM. Further, the Kd in assay [7] was greater than 10000 nM. The “binding of digitoxigenin compared with digoxigenin (FIG. 1, in words)” value in assay [3] (FIG. 1) was “bound even tighter than digoxigenin”. The “binding of ouabain (FIG. 1, in words)” value in assay [5] (FIG. 1) is given as “no binding is observed”. In assay [8], the “binding of the digoxigenin group as conjugate with BSA and with ovalbumin in ELISA (in words)” value is “context-independent”.

B2: DigA: mutein of the bilin-binding protein selected for digoxigenin binding, SEQ ID NO:12 (amino acid sequence SEQ ID NO: 21) (protein)
chain: DVYHDGACPEVKPVDNFDWSQYHGKWWEVAKYPHHERKYGKCGWAEYTPEGKSVKVSRYSVIHGKEYFSEGTAYPVGDSKIGKIYHSYTIGGVTQEGVFNVLSTDNKNYIIGYFCSYDEDKKGHMDLVWVLSRSMVLTGEAKTAVENYLIGSPVVDSQKLVYSDFSEAACKVNN
As to B2, the Kd in assay [1] (determined according to Example 3, read-out: affinity between the mutein and digoxigenin) was 295 ± 36 nM; in assay [2] it was 200 ± 34 nM.

Source of the values: US7001882B1, “Muteins of bilin-binding protein” (Pieris Proteolab AG, priority 1999, dated 2006).
